According to the supplement of paper PMC10567573:

B1: SPATS1 (parent)
chain: YPEQSKGFHKAGSMLPPVNFSIVP
B2: ZNF263 (parent)
chain: FAHSSNLLRHQRIHTGERPYKCPE

Variants of: B1
Assay: protein stability index of a GFP-peptide fusion (GPS, HEK-293T) (PSI 1-6); higher = more stable
Conditions: c terminus: a fixed tail appended
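Also: lentivirally expressed fusions sorted by FACS into six bins by GFP to DsRed ratio, PSI derived from sequencing read proportions per bin multiplied by bin number.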

Protein stability index, by site and new letter:
V23: T 1.74, K 2.1, S 1.97, G 1.98, R 1.9, A 2.57, D 1.88, I 2.47, N 2.35, Y 1.75, W 1.87, E 2.42, M 1.93, C 1.8, H 1.43, Q 2.26, F 1.59, L 1.94
I22: P 2.01, W 1.24, M 2.04, A 2.22, F 1.97, V 1.82, N 2.31, T 2.53, D 2.47, Y 1.75, H 1.75, E 2.33, K 1.65, L 2.34, S 2.48, Q 2.26, C 1.76, G 2.52, R 2.52
S21: I 2.13, E 1.94, Q 1.88, K 2.15, D 1.87, R 1.8, L 2.08, P 1.96, M 2.06, C 1.79, Y 2.6, T 2.52, H 1.49, W 2.43, N 2.4, A 1.8, G 1.81, F 1.6, V 2.24
P24: F 1.83, D 2.43, H 1.53, R 1.82, K 2.08, Q 1.75, N 1.84, Y 2.08, L 3.85, I 3.47, M 2.5, G 2.37, S 1.94, V 1.46, T 3.33, C 1.65, A 1.66, W 3.28, E 2.74
F20: L 1.97, Q 2.47, I 1.73, W 1.57, N 2.22, P 2.66, M 1.97, S 2.14, K 2.19, T 2.24, R 2.23, V 2.88, Y 2.03, H 2.19

Variants of: B2
Assay: as above
Conditions: c terminus: a fixed tail appended

Protein stability index, by site and new letter:
S4: W 2.62, G 2.45, C 2.11, I 2.09, L 2.48, V 2.24, H 1.91, P 2.62, Y 2.45, M 1.86, K 2.28, D 2.94, Q 2.06, E 3.05, R 2.07, T 2.13, A 2.15, F 2.55, N 2.7
S5: A 2.04, C 2.02
A2: P 2.67, K 3.08, R 2.82, T 2.43, L 2.57, I 1.89, N 3.34, W 2.18, S 3.19, D 3.41, G 3.17, Y 2.55, Q 2.73, C 2.62, V 3.61, M 2.83, F 2.17, E 3.69, H 1.82
H3: C 2.07, T 2.06, I 2.34, F 1.89, A 2.15, R 2.04, D 1.94, W 1.25, Q 2.03, L 2.61, G 2.12, M 2.41, V 1.86, E 1.98, P 2.5, Y 1.96, K 1.86, S 2.22, N 2.48
F1: Y 2.51, D 3.9, K 3.54, G 4.33, I 3.77, W 3.29, H 4.22, S 3.34, R 3.46, T 3.67, P 3.95, A 3.8, M 3.9, L 2.67, E 3.92, Q 4.13, C 2.36, N 3.9, V 3.01
